Molecular target: T1, β subunit of Thermotoga maritima RNA polymerase (tmβ) (Thermotoga maritima, UniProt P29398 1-1263)
T1 sequence (looked up): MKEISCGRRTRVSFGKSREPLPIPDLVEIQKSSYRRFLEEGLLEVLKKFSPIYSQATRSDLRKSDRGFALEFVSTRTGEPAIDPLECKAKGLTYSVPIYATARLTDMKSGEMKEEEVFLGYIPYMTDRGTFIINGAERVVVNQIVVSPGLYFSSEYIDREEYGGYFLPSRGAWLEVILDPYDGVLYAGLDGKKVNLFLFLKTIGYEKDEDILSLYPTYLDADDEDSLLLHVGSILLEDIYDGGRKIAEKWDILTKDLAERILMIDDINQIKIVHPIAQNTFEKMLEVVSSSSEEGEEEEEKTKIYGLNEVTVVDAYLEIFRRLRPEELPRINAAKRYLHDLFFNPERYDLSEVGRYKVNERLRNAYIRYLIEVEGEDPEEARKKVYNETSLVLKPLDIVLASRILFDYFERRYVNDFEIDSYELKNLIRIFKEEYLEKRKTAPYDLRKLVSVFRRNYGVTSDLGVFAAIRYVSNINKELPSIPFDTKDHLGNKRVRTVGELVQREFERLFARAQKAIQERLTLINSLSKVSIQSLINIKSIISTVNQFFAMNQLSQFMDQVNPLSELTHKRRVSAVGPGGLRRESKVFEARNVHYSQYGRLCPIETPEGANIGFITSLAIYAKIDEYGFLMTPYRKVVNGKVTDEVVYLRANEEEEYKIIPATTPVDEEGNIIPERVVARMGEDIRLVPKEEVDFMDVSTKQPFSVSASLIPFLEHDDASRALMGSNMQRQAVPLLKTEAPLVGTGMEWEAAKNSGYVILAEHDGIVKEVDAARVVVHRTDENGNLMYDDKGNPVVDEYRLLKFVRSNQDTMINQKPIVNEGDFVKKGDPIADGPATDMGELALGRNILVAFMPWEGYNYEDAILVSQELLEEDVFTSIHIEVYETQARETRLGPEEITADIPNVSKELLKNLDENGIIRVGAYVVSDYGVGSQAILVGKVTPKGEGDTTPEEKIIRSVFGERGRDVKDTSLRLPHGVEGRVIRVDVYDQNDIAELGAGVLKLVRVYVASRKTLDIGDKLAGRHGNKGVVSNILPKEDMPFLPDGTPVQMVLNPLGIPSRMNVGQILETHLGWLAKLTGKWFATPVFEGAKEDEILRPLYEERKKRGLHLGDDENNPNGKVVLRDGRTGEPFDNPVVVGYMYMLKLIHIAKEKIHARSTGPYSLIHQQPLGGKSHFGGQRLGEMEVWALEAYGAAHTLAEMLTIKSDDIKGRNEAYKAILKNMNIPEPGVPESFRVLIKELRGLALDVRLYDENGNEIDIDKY
Experiment: NMR titration

B1: tmNusG-DII (residues 42-233 of tmNusG) (domain or fragment, Thermotoga maritima, UniProt P29397 42-233, looked up)
chain: EEVVLDATSPSERLILSPKAKLHVNNGKDVNKGDLIAEEPPIYARRSGVIVDVKNVRKIVVETIDRKYTKTYYIPESAGIEPGLRVGTKVKQGLPLSKNEEYICELDGKIVEIERMKKVVVQTPDGEQDVYYIPLDVFDRDRIKKGKEVKQGEMLAEARKFFAKVSGRVEVVDYSTRKEIRIYKTKRRKLFP
B1: binds.

From publication PMC5224480 (Nucleic Acids Research, 2016)
